Here are results for 30 sequences from the nanobody polyreactivity screen of Harvey et al. (2022).

This data set can be described thus: yeast display, Sf9 membrane polyspecificity reagent, FACS + sequencing; frameworks hold sequencing errors. The method in brief: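 A nanobody's polyreactivity label depends on the gate it was sorted from. Yeast display cells were stained with 10% biotinylated, detergent-solubilized Sf9 membrane reagent for 1 hour at 4 °C, enriched on streptavidin microbeads and sorted by FACS. The low and high (top ~1%) gates were set on anti-HA fluorescence for expression and streptavidin fluorescence for reagent binding.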
In the case of “QVQLVESGGGLVQAGGSLRLSCAASGSTFSVYAMGWYRQAPGKERELVADNTRGGSTYADSVKGRFTISRDNAKNTVYLQMNSLKPEDTAVYYCAREEVTPYPLYWSTREYDYWGQGTQVTVSS”, the “polyreactivity (PSR sort gate)” value was “low polyreactivity”. Regarding “QVQLVESGGGLVQAGGSLRLSCAASGSIFWWYAMGWYRPAPGKERELVAAISGRGGNTYYADSVKGRFTISRDNAKNTVYLQMNSLKPEDTAVYYCNADDTKYPYYTDDYWGQGTQVTVSS”, the “polyreactivity (PSR sort gate)” value is “low polyreactivity”.

Take “QVQLVESGGGLVQAGGSLRLSCAATGSTFIGYAMGWYRQAPGKETELVAAISEIGGSTYYADSVKGRFTISRDNAKNTVYLKMNSLKPEDTAVDYCAATEVYLYFWYGYEYWGQGTQVTVSS”: the “polyreactivity (PSR sort gate)” value was “low polyreactivity”. With “QVQLVVSGGGLVQAGGSLRLSCAASGRIFVANAMGWYRQAPGKERELVAAISGRGSRTYYADSVKGRFTISRDNAKNTVYLQMNSLKPEDTAVYYCAARYRYDGRYDYWGQGTQVTVSS” the entry was “high polyreactivity”.

In the case of “QVQLVESGGRLVQAGGSRRLSCAASGSTFYTNDMGWYIQAPGKERELVAAISSGGDYADSVKGRFTISRDNAKNTVYLQMNSLKPEDTAVYYCAKADTKWGQGTQVTVSS”, the “polyreactivity (PSR sort gate)” value is “low polyreactivity”. For “QVQLVESGGGLVQAGGSLRLSCAASGFIFQIYAMGWYRQAPGKERELVAAISSGGSTNYADSVKGRFTISRDNAKNTVYVQMNSMKPEDTAVYYCAAATHYWYFYSFKDKSGFRGYYWGQGTQVTVSS”, the “polyreactivity (PSR sort gate)” value is listed as “high polyreactivity”.

In the case of “QVQLVESGGGLVQAGGSLRLSCAASGRTFRYYDMGRYRQAPGKERELVAAISSSGDRTYYADSVKGRFTISRDNAKNTVYLQMNSLKPEDTAVYYCAADRGARGDYWGQGTQVTVSS”, the “polyreactivity (PSR sort gate)” value is “high polyreactivity”. Consider “QVQLVESGGGLVQAGGSLRLSCAASGITFTYYAMGWYRQAPGKVRELVAGISSGTRTYYADSVKGRFTISRDNAKNTVYLQMNSLKPEDTAVYYCAARTGSRYSRGDYWGHGTQVTVSS”, for which the “polyreactivity (PSR sort gate)” value was “high polyreactivity”.

Take “QVQLVESGGGLVLAGGSLRLTCAASGRTFSQYTMGWYRQAPGKERELVAAISVSGTSTYYADSVKGRFTISRDNAKNTVYLQMNSLKPEDTAVYYCAAGYQRITRFAHRKYGYWGQGTQVTVSS”: the “polyreactivity (PSR sort gate)” value is given as “high polyreactivity”.

As for “QVQLQESGGGLVQAGGSLLSCAASGTISYYREMGSYRQAPGKERELVAGIGVGTITYYADSVKGRFTISRDNAKKTVFLQMNSLNPEDTAVYFCGDHIDGNDSHAYWGQGTQVTVSS”, the “polyreactivity (PSR sort gate)” value is “low polyreactivity”. For “QVQLVESGGGLVQAGGSLRLSCAASGRTFDYYVMGWYRQAPGKERELVAAITSGGSTYYADSVKGRFTISRDNAKNTVYLQMNSMKPEDTAVYYCNNVRGAFYSHLFDYWGQGTQVTVSS”, the “polyreactivity (PSR sort gate)” value is listed as “high polyreactivity”. With “QVQLVESGGGLVQAGGSLRLSCAASGFTFSSDAMGWYRQAPGKERELVAAITWRGGTTYYADSVKGRFTISRDNAKNTVYLQMNSLKPEDTAVYYCAVDFKRVIRGSRWGDYWGQGTQVTVSS”, the “polyreactivity (PSR sort gate)” value is recorded as “high polyreactivity”.

“QVQLVESGGGLVQAGGSLRLSCAASGFTFRGYAMGWYRQAPGIERELVATISRRAASTYYADTVKGRFTISRDNAKNTVYLLMNSLKPEDTAVYYCAKVNRYDDDRDGFGYWGHGTQVTVSS”: the “polyreactivity (PSR sort gate)” value is reported as “high polyreactivity”. For the sequence “QVHLVESGGGLVQAGGSLRLSCAASGRTFPYNAMGWYRQAPGKERELVATIDSSGTRTFYADSVKGRFTISRDNANNTVYLQMNSLKPEDTAVYYCAKGWYAYKLYGYDYWGQGTQVTVSS”, the “polyreactivity (PSR sort gate)” value is on record as “low polyreactivity”. Under “QVQLVESGGGLVQAGGSLRLSCAASGRIFRGYAMGWYRQAPGTERELVAAISRRGGSTYYAASVKGRFTISRDNAKNTVYLQNNSLKPEDTAVYYCNADGVHYVAYAGGYWGQGTQVTVSS” stands “high polyreactivity”; under “QVQLVESGGGLVQAGGSLRLSCAASGITFLHYALGWYRQAPGKERELDAAISVRGGITYYADSVKGRFTISRDNAKNTVYLQMHSLKPEDTAVFYCAADRPKFYNSIYDYWGQGTQVTVSS”, “low polyreactivity”. For “QDQLVESGGGLVQAGGSLRLSCAASGSTFTYYAMGWYRQAPGKERELVAAIRNSDGTTYYADSVKGRFTLSRDTAKFTVYLQMNSLKPEDTAVYYCAAGPRGRWSTYDYWGQGTQVNVSS”, the “polyreactivity (PSR sort gate)” value is reported as “low polyreactivity”. With “QVQLVVSGGGLVQAGGILRFSCAASGRTIWYNAMGWYRQAPGKERELVASISRSGGSTYYADSVKGRFTISRDNAKNTVYLQMNSLKPEDTAVYYCAAESFDYTTWYGYWGQGTQVTVSS”, the “polyreactivity (PSR sort gate)” value was “high polyreactivity”.

For “QVQLVESGGGLVQAGGSLRLSCAASGSTFSYNAMGWYRQAPGKERELVAAFSFISGSTYYADSVKGRFTISRDNAKNTVYLQMNSLKPEDTAVYFCAKRYRLRGRYDYWGQGTQVTVSS”, the “polyreactivity (PSR sort gate)” value is “high polyreactivity”.

Turning to “QVQLVESGGGLVQAGGSLRLSCAASGYTFFTNVMGWYRKAPGKERELVATITAGGSTYADSVKGRFTISRDNAKNTFYLQMNSLKPEDTAVYYCAVDALTGAWLGGYPYWADGYDYWGQGTQVTVSS”, the “polyreactivity (PSR sort gate)” value is recorded as “low polyreactivity”.

As for “QVQLVESGGGLVQAGGSLRLSCAATGFTFGRYAMGWYRQAPGKERELVAAITWSGGSTYYADSVKGRFTISRDNAKNTVYLQMNSLKPEDTAVYYCNRLSNNREYDYWGQGTQVTVSS”, the “polyreactivity (PSR sort gate)” value is given as “high polyreactivity”.

Take “QVQLVESGGGLVQAGGSLRLSCAASGSIFADYVMGWYRQAPGKERELVAAITRRGRTYYADSVKGRFTISRDNAKNTVYLQMNSLIPEDTAVYYCAKVASGKIDSWGQGTQVTVSS”: the “polyreactivity (PSR sort gate)” value is on record as “low polyreactivity”. Under “QVQLVESGGGLVQAGGSLRLSCAASGSIFGTYAMGWYRQAPGKEREFVAAISWADGSTYYADSVKGRFTISRDNAKNTVYLQMNSLNPEDTAVFYCAVRRVGSIYIDRYIYVVADYDYWGQGTQVTVSS” stands “low polyreactivity”; under “QVQLVESGGGLGQAGGSLRLSCAASGRIFVDYAMGWYRQAPGKERELVAAINSGGSTNYADSVKGRFTISRDNAKNTVNLQMNSQKPEDTAVYYCNKDTLVYGYVQDYEYWGQGTQVTVSS”, “low polyreactivity”. With “QVQLVESGGGVVQAGGSLRLSCAASGSNFDRNAMGWYRQAPGKERELVAAISRSGGSTNYADSVKGRFTISRDNAKNTFYLQMNSLKPEVTAVYYCAAVRTHWFGQGWAVYWFEYWGQGTQVTVSS” the entry was “low polyreactivity”; with “QVQRVESGGGIDQAGGSLRLSCAASGLTFSIYAIGWYRQAPGKERDLVDAISWSGGSTYYADSVKGRFTISRDNAKNTVYLQMISLKPEVTAVYYCAARVYRPWWRYDYWGQGTQVSVSS”, “high polyreactivity”. With “QVQLVESGGGLVQAGGSLRLSCAASGDTFTSYAMGWYRQAPGKERELVAAISRRGGSTYYADSVKGRFTISRDNAKNTVYLQMNSLKPEDTAVYYCAAKSYSYTEFDYWGQGTQVTVSS” the entry was “high polyreactivity”; with “QVQLVESGGGLVQAGGSLRLTCAASGRTFYIYAMGWYRPAPGKERQLVAAITYGGGRTFYADSVKGRFTISRYNAKNTVYLQMNSLKPEDTAVYYCGATVRGKRSTYDYWGQGTQVTVSS”, “high polyreactivity”. As for “QVQLVESGGGLVQAGGSLRLSCAASGGILVFYALGWYRQSPGKERELVAAINVSGGSTYYADSVKGRFTISRDNAKNTVYLQMNSLKPEDTAVYYCAALGPYLDYGVQYGYWGQGTQVTVSS”, the “polyreactivity (PSR sort gate)” value is listed as “low polyreactivity”. Take “QVQLVESGGGLVQAGGSLRLSCAASGSIFRYNAMGWDRQAPGKERELVAGITWGGSTYYADSVKGRFTISRDNAKNTVYLQMNSLKPEDTAVYYCAAGRYGDYGYWGQGTQVTVSS”: the “polyreactivity (PSR sort gate)” value was “high polyreactivity”.
